The values that follow come from patent US7399847 (GENERAL HOSPITAL, dated 2008).

The assay addresses T1, PSGL-1-NH2/CD34-COOH (UniProt Q14242 18-117; P28906 30-385).
T1 construct: range mature amino terminus-117;range 30-end (end not numbered), on cells; Cotransfected with FTVIIh; also called PSGL-1 apical domain on CD34
T1 sequence: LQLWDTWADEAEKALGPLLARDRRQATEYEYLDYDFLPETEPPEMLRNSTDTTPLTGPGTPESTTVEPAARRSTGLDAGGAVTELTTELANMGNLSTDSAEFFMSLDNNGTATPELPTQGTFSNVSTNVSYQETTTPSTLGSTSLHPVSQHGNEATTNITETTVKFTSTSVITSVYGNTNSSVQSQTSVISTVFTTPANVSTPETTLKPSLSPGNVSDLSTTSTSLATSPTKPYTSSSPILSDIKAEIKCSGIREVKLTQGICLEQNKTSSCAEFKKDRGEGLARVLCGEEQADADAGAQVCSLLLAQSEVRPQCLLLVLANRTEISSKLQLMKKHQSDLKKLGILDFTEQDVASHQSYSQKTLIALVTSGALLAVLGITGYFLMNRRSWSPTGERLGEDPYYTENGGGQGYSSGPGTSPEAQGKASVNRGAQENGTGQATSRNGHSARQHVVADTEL
Kind of assay: adhesion of 51Cr-labelled transfected COS cells to immobilized P-selectin:Ig.

Experimental: To assess the importance of these residues, the tyrosines were converted to phenylalanine (FIG. 9A). In a second peptide, the threonines were converted to alanines. In addition, a third peptide, containing a quintuple mutation, was prepared such that both conversions were made in a single peptide. […] Cells expressing the resulting chimeras were tested for their ability to bind to immobilized P-selectin (FIG. 9A). […] Expression of the flu tag or sLe^x epitope was not affected in these cells.

B1: P-selectin:immunoglobulin fusion protein (Fc fusion, UniProt P16109 42-321, looked up)
chain: WTYHYSTKAYSWNISRKYCQNRYTDLVAIQNKNEIDYLNKVLPYYSSYYWIGIRKNNKTWTWVGTKKALTNEAENWADNEPNNKRNNEDCVEIYIKSPSAPGKWNDEHCLKKKHALCYTASCQDMSCSKQGECLETIGNYTCSCYPGFYGPECEYVRECGELELPQHVLMNCSHPLGNFSFNSQCSFHCTDGYQVNGPSKLECLASGIWTNKPPQCLAAQCPPLKIPERGNMTCLHSAKAFQHQSSCSFSCEEGFALVGPEVVQCTASGVWTAPAPVCKA
notes: domain: lectin, EGF-related, and first two short consensus repeat related domains; Made in COS cells; captured from supernatant on wells coated with goat anti-human IgG Fc; also called soluble P-selectin; P-selectin Ig chimera; not shown: hinge, CH2, and CH3 domains of human IgG1
As to B1, the binding result is reported as “binds”.
